T1: IGFBP-1 (UniProt P08833 26-259)
T1 construct: in kinetics immobilised on a CM chip by EDC/NHS; biotinylated in the phage selection
T1 sequence (looked up): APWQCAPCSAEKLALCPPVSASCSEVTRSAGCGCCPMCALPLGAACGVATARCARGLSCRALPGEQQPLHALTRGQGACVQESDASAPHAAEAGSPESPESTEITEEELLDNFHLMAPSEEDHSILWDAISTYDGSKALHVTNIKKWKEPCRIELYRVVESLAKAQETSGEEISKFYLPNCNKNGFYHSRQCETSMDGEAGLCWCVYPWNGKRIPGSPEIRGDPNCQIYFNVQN

B1: bp1-23 (peptide)
peptide: CRAGPLQ[1Nal]LCEKYF
modifications: disulfide 1-10
notes: also called W8(Nal(1)) variant of bp1-16
B2: (i+7)C (peptide)
peptide: Ac-PLEWLAEKYEG
modifications: linker 3-10 via 1,5‑diaminopentane
notes: also called locked-helix variant of bp1-01
B3: (i+8)C (peptide)
peptide: Ac-RAGPLEWLAEKYFE
modifications: linker 6-14 via 1,5‑diaminopentane
notes: as for B2
B4: (i+7)D (peptide)
peptide: Ac-RAGPLEWLAEKYEG
modifications: linker 6-13 via 1,5‑diaminopentane
notes: as for B2
B5: (i+7)A (peptide)
peptide: Ac-CRAGPLQELCEKYAE
modifications: disulfide 1-10 (inferred); linker 8-15 via 1,5‑diaminopentane
notes: W8 and G15 replaced by the cross-linking Glu residues, F14 replaced by Ala; also called locked-helix variant of bp1-01
B6: (i+8)B (peptide)
peptide: Ac-RPLEWLAEKYFE
modifications: linker 4-12 via 1,5‑diaminopentane
notes: as for B2
B7: (i+7)B (peptide)
peptide: Ac-LEWLAEKYEG
modifications: linker 2-9 via 1,5‑diaminopentane
notes: as for B2
B8: bp1-625 (peptide)
peptide: GQQSCAAGPLQWLCEHYFSTYGR
modifications: disulfide 5-14
notes: bp1-40 with R2A, K12H and an added C-terminal GlyArg

Positions of bridges follow the written chain, without caps; N, C: chain ends. Non-standard residues stand in square brackets, D forms with d. No end group written: not given here. 1Nal = N[C@@H](Cc1cccc2ccccc12)C(=O)O; Nle = CCCC[C@H](N)C(=O)O

The first test has as its target T1, IGFBP-1. Description: ELISA inhibition of IGFBP-1 binding to IGF-I. Background: ELISA stands for enzyme-linked immunosorbent assay.
With CRAGP[Nle]QWLCEKYF (disulfide 1-10, also called L6(Nle) variant of bp1-16) [bp1-36], the “Fold potency reduction IC50(mut)/IC50(bp1-16)” value turned out to be 6.9 fold.

For CRAGPLQWRCEKYF (disulfide 1-10, also called L9R variant of bp1-16) [bp1-26], the “Fold potency reduction IC50(mut)/IC50(bp1-16)” value was over 570 fold.

For the molecule CRAGPLQHLCEKYF (disulfide 1-10, also called W8H variant of bp1-16) [bp1-24], the “Fold potency reduction IC50(mut)/IC50(bp1-16)” value is 7.5 fold.

For CRAGPRQWLCEKYF (disulfide 1-10, also called L6R variant of bp1-16) [bp1-32], the “Fold potency reduction IC50(mut)/IC50(bp1-16)” value is over 1000 fold.

Turning to CRAGRLQWLCEKYF (disulfide 1-10, also called P5R variant of bp1-16) [bp1-31], the “Fold potency reduction IC50(mut)/IC50(bp1-16)” value was 2 fold.

In the case of CRAAPLQWLCEKYF (disulfide 1-10, also called G4A variant of bp1-16) [bp1-29], the “Fold potency reduction IC50(mut)/IC50(bp1-16)” value stood at 50 fold.

Take CRAGNLQWLCEKYF (disulfide 1-10, also called P5N variant of bp1-16) [bp1-34]: the “Fold potency reduction IC50(mut)/IC50(bp1-16)” value was found to be 3.1 fold.

In the case of CRAGALQWLCEKYF (disulfide 1-10, also called P5A variant of bp1-16) [bp1-30], the “Fold potency reduction IC50(mut)/IC50(bp1-16)” value was determined as 1.5 fold.

Take CRAGPLQW[Nle]CEKYF (disulfide 1-10, also called L9(Nle) variant of bp1-16) [bp1-37]: the “Fold potency reduction IC50(mut)/IC50(bp1-16)” value was found to be 1.7 fold.

Another test concerns the target T1, IGFBP-1. Description: BIAcore inhibition of IGFBP-1 binding to IGF-I. (In general: Surface plasmon resonance follows binding to a sensor surface in real time, without labels.)
Regarding CRAGPLQRLCEKYF (disulfide 1-10, also called W8R variant of bp1-16) [bp1-22], the “Fold potency reduction IC50(mut)/IC50(bp1-16)” value was 3.3 fold.

Turning to B1, the “Fold potency reduction IC50(mut)/IC50(bp1-16)” value is 4.8 fold.

For a further test, the target named is T1, IGFBP-1. Description: BIAcore inhibition of the interaction of IGFBP-1 with IGF-1. The procedure: Peptides were assayed in a BIAcore1 assay as described in WO 98/45427, supra.
As for B2, the “Fold potency reduction vs bp1-01” value was 20 fold.

Regarding B3, the “Fold potency reduction vs bp1-01” value amounted to 5.9 fold.

On to B4, for which the “Fold potency reduction vs bp1-01” value is 7.7 fold.

In the case of B5, the “Fold potency reduction vs bp1-01” value turned out to be 40 fold.

In the case of B6, the “Fold potency reduction vs bp1-01” value was 7.7 fold.

B7: the “Fold potency reduction vs bp1-01” value was over 360 fold.

The target of the next test is T1, IGFBP-1. Description: ELISA or BIAcore inhibition of IGFBP-1 binding to IGF-I; reference peptide.
Regarding CRAGPLQWLCEKYF (disulfide 1-10, Synthetic peptide) [bp1-16], the “Fold potency reduction IC50(mut)/IC50(bp1-16)” value amounted to 1 fold.

The target of a further test is T1, IGFBP-1. Description: BIAcore inhibition of the interaction of IGFBP-1 with IGF-1; reference peptide.
CRAGPLQWLCEKYFG (disulfide 1-10) [bp1-01]: the “Fold potency reduction IC50(bp1-01)/IC50(mut)” value was 1 fold.

In another test the target is T1, IGFBP-1. Nature of the test: BIAcore inhibition assay, 9-10 nM IGFBP-1, immobilized IGF-1.
With B8, the “fold improved potency over bp1-01” value is about 20 fold.

Values taken from patent US6420518.
